The record followed here is publication PMC6041441, “WRKY1 acts as a key component improving resistance against Alternaria solani in wild tomato, Solanum arcanum Peralta”.

The target of the data set is T1, rSaWRKY1 (Solanum arcanum Peralta (accession not …, UniProt A0A1P8NTG4 1-410)).
T1 sequence: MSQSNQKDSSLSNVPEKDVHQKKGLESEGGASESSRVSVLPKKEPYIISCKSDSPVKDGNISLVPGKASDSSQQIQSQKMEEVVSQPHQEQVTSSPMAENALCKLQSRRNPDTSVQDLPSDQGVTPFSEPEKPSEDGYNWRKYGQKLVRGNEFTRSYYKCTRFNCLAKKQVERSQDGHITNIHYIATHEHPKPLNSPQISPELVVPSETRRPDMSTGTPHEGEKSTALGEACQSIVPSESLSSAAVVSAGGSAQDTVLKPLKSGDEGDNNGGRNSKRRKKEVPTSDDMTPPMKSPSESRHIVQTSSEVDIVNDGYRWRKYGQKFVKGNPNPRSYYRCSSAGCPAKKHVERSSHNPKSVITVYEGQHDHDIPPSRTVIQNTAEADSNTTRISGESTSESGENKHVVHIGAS
Put plainly: EMSA; 10 ug protein; 10x binding buffer: 0.10 mg/mL BSA, 1 mM DTT, 10 mM EDTA, 50% glycerol, 1 M KCl, 100 mM Tris-HCl pH 7.5 (stock as printed; working dilution not stated); 25 C, 30 min; 2% agarose gel, GelRed. To be noted: protein: recombinant; recombinant protein 62.6 kDa; label: none (GelRed stain); blunt.

Substitutions are numbered along the chain they refer to.

B1: 4xW-box (dsDNA)
DNA 1: AAAAAATTGACCAAATTGACTCCAATTGACCAAATTGACCAAACACCACCTCCCACCTATAAAAAA
DNA 2: TTTTTTATAGGTGGGAGGTGGTGTTTGGTCAATTTGGTCAATTGGAGTCAATTTGGTCAATTTTTT
In the case of B1, the binding result is given as “binds”.

B2: mutated 4xW-box (4xmWbox) (dsDNA)
DNA 1: B1 DNA 1 with G9T, G18T, G28T, G37T
DNA 2: B1 DNA 2 with C30A, C39A, C49A, C58A
B2: the binding result is given as “no binding”.
